From paper PMC2823288 (Nature structural & molecular biology, 2009) come the findings set out here.

For the assay, the target named is Full-length human DDB1 (human, UniProt Q16531 1-1140). The assay is described as follows: crystal structure.
Chain of Full-length human DDB1 (Q16531 whole entry): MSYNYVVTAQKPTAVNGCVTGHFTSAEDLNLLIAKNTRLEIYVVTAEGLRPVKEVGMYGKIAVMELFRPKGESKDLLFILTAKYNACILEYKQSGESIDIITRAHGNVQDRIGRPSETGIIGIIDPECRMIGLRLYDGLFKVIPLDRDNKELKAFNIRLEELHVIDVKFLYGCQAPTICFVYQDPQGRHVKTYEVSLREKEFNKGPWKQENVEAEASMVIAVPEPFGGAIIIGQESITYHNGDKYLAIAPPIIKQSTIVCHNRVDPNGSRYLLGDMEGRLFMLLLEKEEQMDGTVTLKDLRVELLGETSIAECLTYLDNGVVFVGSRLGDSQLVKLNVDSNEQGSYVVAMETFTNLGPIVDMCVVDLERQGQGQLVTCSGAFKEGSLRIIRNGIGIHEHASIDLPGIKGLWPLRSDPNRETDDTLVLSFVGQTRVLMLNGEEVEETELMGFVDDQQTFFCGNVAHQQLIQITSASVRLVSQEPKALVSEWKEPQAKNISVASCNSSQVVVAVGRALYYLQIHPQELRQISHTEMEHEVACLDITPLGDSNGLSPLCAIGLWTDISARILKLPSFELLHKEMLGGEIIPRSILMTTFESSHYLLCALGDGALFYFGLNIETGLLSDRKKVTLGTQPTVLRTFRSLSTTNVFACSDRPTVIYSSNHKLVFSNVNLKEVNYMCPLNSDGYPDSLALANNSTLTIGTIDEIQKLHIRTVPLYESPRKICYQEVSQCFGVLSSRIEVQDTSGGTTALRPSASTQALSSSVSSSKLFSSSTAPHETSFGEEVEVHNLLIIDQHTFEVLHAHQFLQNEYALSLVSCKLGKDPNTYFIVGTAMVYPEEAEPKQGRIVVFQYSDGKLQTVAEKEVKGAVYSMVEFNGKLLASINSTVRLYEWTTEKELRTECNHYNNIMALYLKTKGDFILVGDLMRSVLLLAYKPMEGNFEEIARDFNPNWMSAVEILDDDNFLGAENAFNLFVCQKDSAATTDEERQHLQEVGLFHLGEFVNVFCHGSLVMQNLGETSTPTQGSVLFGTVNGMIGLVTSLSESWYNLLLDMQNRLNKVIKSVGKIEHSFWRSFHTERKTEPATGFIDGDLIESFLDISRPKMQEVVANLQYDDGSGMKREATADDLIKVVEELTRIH

B1: DCAF9 peptide (amino acids 5 to 17 of DCAF9/WDTC1) (peptide, UniProt Q8N5D0 5-17, looked up)
peptide: NITRDLIRRQIKE
Consider B1, for which the binding result is “binds”.
